Results from patent publication US20220401482A1, “GENERATION OF CD38 KNOCK-OUT PRIMARY AND EXPANDED HUMAN NK CELLS” (RESEARCH INSTITUTE AT NATIONWIDE CHILDREN'S HOSPITAL, priority 2019, published 2022).

Target: CD38 (cluster of differentiation 38) on human NK cells and multiple myeloma cells (human) (UniProt P28907)
Assay: cell-based or functional assay

Substance: daratumumab (antibody)
- sensitivity to daratumumab-mediated fratricide, unmodified control (CD38-expressing) NK cells: 77%
